Results reported in the supplement of paper PMC10899765.

What follows are sequences tested on MCF10A (assay: 5+ nucleoli phenotype percent effect (relative to siNT 0% and siKIF11 100%); higher = more cells with five or more nucleoli). Conditions: 20 nM; 72 h.
Procedure: (§1)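 After 72 h, cells were fixed and stained with Hoechst and anti-fibrillarin, and nucleoli per nucleus were counted with CellProfiler. Values are plate-adjusted percent effect for the one-nucleolus and 5+ nucleoli phenotypes, normalised to siNT (0%) and to the positive controls siNOL11 or siKIF11 (100%), as the mean of biological triplicates. Percent viability is the nuclei count relative to siNT.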

Row | Sequence | 5+ nucleoli phenotype percent effect [%]
1 | UGUCUCUCGCCCUUGGCCUUAG [hsa-miR-6895-3p] | -32.5
2 | UCUCUGGUCUUUCCUUGACAG [hsa-miR-6764-3p] | 17.2
3 | UGUAGUGUUUCCUACUUUAUGGA [hsa-miR-142-3p] | -20
4 | AGCACACUGAGCGAGCGGAC [hsa-miR-8064] | -14.8
5 | UAUGGCUUUUUAUUCCUAUGUGA [hsa-miR-135a-5p] | -18.7
6 | AAAAGCUGGGUUGAGAGGGU [hsa-miR-320c] | -0.437
7 | CAUUGCACUUGUCUCGGUCUGA [hsa-miR-25-3p] | -21.1
8 | CCAGUGACUGAGCUGGAGCCA [hsa-miR-5190] | -11.4
9 | UGGAAUGUAAGGAAGUGUGUGG [hsa-miR-206] | -23.7
10 | ACACUGUCCCCUUCUCCCCAG [hsa-miR-6760-3p] | 56.3
11 | UACAGUACUGUGAUAACUGAA [hsa-miR-101-3p] | -26.5
12 | ACAGGCACGACUGGUUUGGCA [hsa-miR-6715b-5p] | -27.8
13 | CAACGGAAUCCCAAAAGCAGCUG [hsa-miR-191-5p] | 2.25
14 | ACCCCACUCCUGGUACC [hsa-miR-4286] | 39.7
15 | CCUAGUAGGUGUCCAGUAAGUGU [hsa-miR-325] | 25
16 | UAAAGAGCCCUGUGGAGACA [hsa-miR-1276] | -20.8
17 | CCUGACCCACCCCCUCCCGCAG [hsa-miR-4750-3p] | 40.4
18 | CAAAGCGCUCCCCUUUAGAGGU [hsa-miR-518b] | -39.6
19 | CUCUAGAGGGAAGCACUUUCUG [hsa-miR-520c-5p] | 17.5
20 | ACCCGUCCCGUUCGUCCCCGGA [hsa-miR-1247-5p] | 2.26
21 | AGCAGGGCUGGGGAUUGCA [hsa-miR-6132] | -31
22 | UACUAACUGCAGAUUCAAGUGA [hsa-miR-4637] | 24.1
23 | AGACCAUGGGUUCUCAUUGU [hsa-miR-591] | 10.2
24 | UGGCUUCUCUUGCACACCCAG [hsa-miR-6815-3p] | -12.3
25 | UGGGAGCUAAGCUAUGGGUAU [hsa-miR-5591-5p] | -6.94
26 | UCUGGGGUCUUGGGCCAUC [hsa-miR-7155-5p] | -0.455
27 | AUCGCUUUACCAUUCAUGUU [hsa-miR-4790-5p] | -9.48
28 | CAGUGCCUCGGCAGUGCAGCCC [hsa-miR-33b-3p] | 24.5
29 | GGGGUAUUGUUUCCGCUGCCAGG [hsa-miR-503-3p] | -25.1
30 | GUGCGUGGUGGCUCGAGGCGGGG [hsa-miR-6821-5p] | 24.3

What follows are sequences tested on MCF10A (assay: one-nucleolus phenotype percent effect (relative to siNT 0% and siNOL11 100%); higher = more cells with one nucleolus (ribosome biogenesis inhibition)). Conditions: 20 nM; 72 h.
Procedure: as §1

Row | Sequence | one-nucleolus phenotype percent effect [%]
31 | AGGCAGGGGCUGGUGCUGGGCGGG [hsa-miR-4763-3p] | 9.32
32 | AAAAGUAAUUGCGGUCUUUGGU [hsa-miR-548j] | -14.6
33 | CAGGGCCCUGGCUUUAGCAGA [hsa-miR-7160-3p] | 14.8
34 | UGGGGAAGGCUUGGCAGGGAAGA [hsa-miR-6780b-5p] | 38
35 | CAGCCACAACUACCCUGCCACU [hsa-miR-449b-3p] | -5.19
36 | UCCUGUCCCUGUCUCCUACAG [hsa-miR-6748-3p] | -15.9
37 | ACCGAAGACUGUGCGCUAAUCU [hsa-miR-4671-5p] | -20.7
38 | AGAUCGACCGUGUUAUAUUCGC [hsa-miR-369-5p] | -0.708
39 | UAGGGGAAAAGUCCUGAUCCGG [hsa-miR-6783-5p] | -20.2
40 | AGGAUAGGAAGAAUGAAGUGCU [hsa-miR-5191] | 14.1
41 | CUGGGCCCGCGGCGGGCGUGGGG [hsa-miR-6724-5p] | -9.05
42 | CUCAUUUAAGUAGUCUGAUGCC [hsa-miR-5696] | -11.5
43 | CUGCCUGUUCUUCCACUCCAG [hsa-miR-6514-3p] | 59.9
44 | CCGGUCCCAGGAGAACCUGCAGA [hsa-miR-4746-5p] | 11.9
45 | AAAGAUCUGGAAGUGGGAGACA [hsa-miR-3156-5p] | -18.8
46 | UGCAAAAGUAAUUGCAGUUUUUG [hsa-miR-548x-5p] | -9.86
47 | AGGGACUUUUGGGGGCAGAUGUG [hsa-miR-365a-5p] | -13.1
48 | UCUCUGGUCUUGCCACCCCAG [hsa-miR-6824-3p] | 16.2
49 | UGCCAACCGUCAGAGCCCAGA [hsa-miR-5189-3p] | -1.7
50 | CAAAUGGACAGGAUAACACCU [hsa-miR-4694-3p] | 11.8

Row | Sequence | one-nucleolus phenotype percent effect [%]
51 | ACCUGGGUUGUCCCCUCUAG [hsa-miR-6742-3p] | -15.1
52 | AAAGUGCUGCGACAUUUGAGCGU [hsa-miR-372] | -16.8
53 | UUUAAGAAAACACCAUGGAGAU [hsa-miR-3658] | -25.1
54 | GGGAGGUGUGAUCUCACACUCG [hsa-miR-3689d] | 24.8
55 | ACUGGACUUGGAGUCAGAAGAGUGG [hsa-miR-378c] | -8.35
56 | UGGCCAAAAAGCAGGCAGAGA [hsa-miR-3926] | 11.5
57 | AACAUUCAUUGUUGUCGGUGGGU [hsa-miR-181d] | -6.07
58 | AAAGGUAAUUGCAGUUUUUCCC [hsa-miR-570-5p] | -30.8
59 | CUUCCCCCCAGUAAUCUUCAUC [hsa-miR-3679-3p] | 4.01
60 | UGUCUCUCGCCCUUGGCCUUAG [hsa-miR-6895-3p] | 34.7
61 | UCUCUGGUCUUUCCUUGACAG [hsa-miR-6764-3p] | 0.623
62 | UGUAGUGUUUCCUACUUUAUGGA [hsa-miR-142-3p] | 23.4
63 | AGCACACUGAGCGAGCGGAC [hsa-miR-8064] | -0.792
64 | UAUGGCUUUUUAUUCCUAUGUGA [hsa-miR-135a-5p] | -3.65
65 | AAAAGCUGGGUUGAGAGGGU [hsa-miR-320c] | 1.49
66 | CAUUGCACUUGUCUCGGUCUGA [hsa-miR-25-3p] | 3.94
67 | CCAGUGACUGAGCUGGAGCCA [hsa-miR-5190] | 29.3
68 | UGGAAUGUAAGGAAGUGUGUGG [hsa-miR-206] | 48.4
69 | ACACUGUCCCCUUCUCCCCAG [hsa-miR-6760-3p] | -27.2
70 | UACAGUACUGUGAUAACUGAA [hsa-miR-101-3p] | 11.6

Row | Sequence | one-nucleolus phenotype percent effect [%]
71 | ACAGGCACGACUGGUUUGGCA [hsa-miR-6715b-5p] | 54.7
72 | CAACGGAAUCCCAAAAGCAGCUG [hsa-miR-191-5p] | 11.8
73 | ACCCCACUCCUGGUACC [hsa-miR-4286] | -13.8
74 | CCUAGUAGGUGUCCAGUAAGUGU [hsa-miR-325] | -12.1
75 | UAAAGAGCCCUGUGGAGACA [hsa-miR-1276] | 24.1
76 | CCUGACCCACCCCCUCCCGCAG [hsa-miR-4750-3p] | -19.1
77 | CAAAGCGCUCCCCUUUAGAGGU [hsa-miR-518b] | 61.9
78 | CUCUAGAGGGAAGCACUUUCUG [hsa-miR-520c-5p] | -6.38
79 | ACCCGUCCCGUUCGUCCCCGGA [hsa-miR-1247-5p] | -16.3
80 | AGCAGGGCUGGGGAUUGCA [hsa-miR-6132] | 57.1
81 | UACUAACUGCAGAUUCAAGUGA [hsa-miR-4637] | -24.1
82 | AGACCAUGGGUUCUCAUUGU [hsa-miR-591] | -3.76
83 | UGGCUUCUCUUGCACACCCAG [hsa-miR-6815-3p] | 62.9
84 | UGGGAGCUAAGCUAUGGGUAU [hsa-miR-5591-5p] | 13.6
85 | UCUGGGGUCUUGGGCCAUC [hsa-miR-7155-5p] | 34.2
86 | AUCGCUUUACCAUUCAUGUU [hsa-miR-4790-5p] | 16.1
87 | CAGUGCCUCGGCAGUGCAGCCC [hsa-miR-33b-3p] | -17.8
88 | GGGGUAUUGUUUCCGCUGCCAGG [hsa-miR-503-3p] | 39
89 | GUGCGUGGUGGCUCGAGGCGGGG [hsa-miR-6821-5p] | -27.7
